Results on one molecule are retold here after PMC11472164.

Holding throughout (test): EMSA
Series [1] deals with T1, trFANCM-deltaHel2i (UniProt Q8IYD8 82-647, del298-443).
T1 sequence: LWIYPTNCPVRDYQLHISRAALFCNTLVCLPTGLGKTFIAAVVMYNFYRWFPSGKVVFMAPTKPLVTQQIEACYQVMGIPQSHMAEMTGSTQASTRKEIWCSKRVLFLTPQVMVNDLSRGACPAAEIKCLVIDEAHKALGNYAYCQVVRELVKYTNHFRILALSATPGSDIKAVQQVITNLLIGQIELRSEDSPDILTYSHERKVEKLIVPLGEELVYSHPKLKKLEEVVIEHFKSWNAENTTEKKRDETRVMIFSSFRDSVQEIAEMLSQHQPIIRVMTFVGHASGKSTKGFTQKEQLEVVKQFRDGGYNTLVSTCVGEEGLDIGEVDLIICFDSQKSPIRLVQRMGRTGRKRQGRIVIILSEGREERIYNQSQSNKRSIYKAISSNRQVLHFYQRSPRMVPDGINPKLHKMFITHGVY

Series [2] deals with FANCMc-deltaHel2i (UniProt Q8IYD8;Q8N2Z9;A8MT69;Q9BTP7 1-297+444-2048;1-138;1-81;1-215, internal_change).
For series [3], the target named is FANCMc (full-length FANCM complex) (UniProt Q8IYD8;Q8N2Z9;A8MT69;Q9BTP7 1-2048;1-138;1-81;1-215).
For series [4], the target named is T2, trFANCM (translocase domain) (UniProt Q8IYD8 82-647).
T2 sequence: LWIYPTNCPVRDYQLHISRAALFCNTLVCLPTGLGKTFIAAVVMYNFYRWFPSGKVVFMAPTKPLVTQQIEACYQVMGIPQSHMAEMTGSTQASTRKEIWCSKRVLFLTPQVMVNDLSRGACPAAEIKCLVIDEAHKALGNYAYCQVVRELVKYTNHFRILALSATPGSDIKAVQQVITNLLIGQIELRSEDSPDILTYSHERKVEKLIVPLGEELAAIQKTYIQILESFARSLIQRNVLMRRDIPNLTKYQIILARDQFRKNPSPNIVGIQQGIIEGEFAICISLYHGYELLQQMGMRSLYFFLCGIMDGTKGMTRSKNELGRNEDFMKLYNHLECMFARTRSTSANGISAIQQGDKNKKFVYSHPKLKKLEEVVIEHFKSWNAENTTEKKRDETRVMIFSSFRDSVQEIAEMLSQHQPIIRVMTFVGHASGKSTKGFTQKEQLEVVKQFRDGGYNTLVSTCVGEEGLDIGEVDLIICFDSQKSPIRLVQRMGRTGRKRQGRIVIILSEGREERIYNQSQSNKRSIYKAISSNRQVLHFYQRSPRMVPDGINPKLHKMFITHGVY

B1: 30 bp static (non-migratable) Holliday junction, X0s1-4, IRDye700 (structured_DNA)
DNA 1: TACCAGTGCCTTGCTAGGACATCTTTGCCCAC
DNA 2: GTGGGCAAAGATGTCCATCTGTTGTAATCGTC
DNA 3: GACGATTACAACAGATCATGGAGCTGTCTAGA
DNA 4: TCTAGACAGCTCCATGTAGCAAGGCACTGGTA
B1 returned a binding signal in series [1] of more than 60 fold reduction vs trFANCM. The binding result in series [2], in series [3] and in series [4] was “binds” in each case.
